We go through two compounds from US8242080B2, “Inhibitors of the EGFR kinase targeting the asymmetric activating dimer interface” (The Regents of the University of California, priority 2006, dated 2012).

Where a SMILES comes first, the peptide text is derived from it.

In assay [1] the target is T1, activated EGFR kinase (Homo sapiens, UniProt P00533).
T1 construct: DNA encoding residues 672-998 of human EGFR was cloned into pFAST BAC HT; made in house; host or cells: Sf9 insect cells (baculovirus, pFAST BAC HT; b247 prints 'SD cells')
The experiment in a line: Inhibition of activated EGFR kinase (kinase assay with kinase domain attached to vesicles). The assay is classed as biochemical. The conditions noted are these: read-out: IC50 inhibiting activated EGFR kinase. The procedure: (§1) A continuous enzyme-coupled kinase assay was performed to measure the kinase activity of the proteins as described in Barker et al., ((1995) Biochemistry, Vol. 34(54): 14843-51), with modifications, as described herein. The ATP concentration was kept to 0.5 mM.
(§2) The buffer used contained 10 mM MgCl2, 20 mM Tris, and pH 7.5. […] The substrate peptide was derived from the region spanning Y1173 in EGFR ([…]) (SEQ ID NO: 7). All proteins used in this assay contained the N-terminal (His)6 tag unless otherwise noted.
The protein concentrations of the EGFR kinase domain used in the assay ranged from 3.5 to 14 μM. The total concentration of the DOGS-NTA-Ni in the bulk solution was kept to 12.5 μM in all assays with DOG-NTA-Ni-containing vesicles. For assays of the kinase domain attached to vesicles, the protein and vesicles were preincubated at 4° C. for ˜5 min.
The wildtype EGFR kinase domain was mixed with vesicles containing 0, 0.5, 1, 2 and 5 mole percent of DOGS-NTA-Ni prior to the start of the assay. The final concentration of the protein in the assay was 3.5 μM. […]
For comparing the specific activity of the wildtype and various mutant forms of the EGFR kinase domain in the presence and absence of lipid vesicles, the density of DOGS-NTA-Ni on lipid vesicles was kept at 5 mole percent. […] Due to this high value of KM, the values of KM and kcat were not measured directly. […]

The target of assay [2] is T2, wildtype EGFR kinase domain (Homo sapiens, UniProt P00533).
T2 construct: DNA encoding residues 672-998 of human EGFR was cloned into pFAST BAC HT; made in house; host or cells: Sf9 insect cells (baculovirus, pFAST BAC HT; b247 prints 'SD cells')
The experiment in a line: Continuous enzyme-coupled kinase assay, substrate peptide KM. The conditions noted are these: preliminary experiments, substrate peptide at various concentrations; ATP 0.5 mM. The assay is classed as biochemical. The procedure: as §1, §2
For comparing the specific activity of the wildtype and various mutant forms of the EGFR kinase domain in the presence and absence of lipid vesicles, the density of DOGS-NTA-Ni on lipid vesicles was kept at 5 mole percent. […] Due to this high value of KM, the values of KM and kcat were not measured directly. Instead, the value of kcat/KM was derived from a linear fit to the data obtained, using concentrations of the peptide that are much lower than the estimated value of KM (V=[S]Vmax/(KM+[S]), V˜(Vmax/KM)[S] when [S]<<KM, kcat=Vmax/amount of the enzyme, where V and Vmax are the initial velocity and maximum initial velocity, respectively. (FIG. 6A).

Usually IC50 stands for the concentration at which inhibition is half-maximal. As for “KSLPSYLNGVMPPTQSFAPDPKYVSS [40-mer peptide]”, the half-maximal inhibitory concentration (IC50) in assay [1] was approximately 10 µM.
The term Km denotes the concentration of substrate that gives half-maximal velocity. For the compound `CC(C)C[C@H](NC(=O)[C@H](Cc1ccc(O)cc1)NC(=O)[C@H](CCC(=O)O)NC(=O)[C@H](C)NC(=O)[C@H](CC(N)=O)NC(=O)[C@H](CCC(=O)O)NC(=O)[C@H](C)NC(=O)[C@@H](N)[C@@H](C)O)C(=O)N[C@@H](CCCNC(=N)N)C(=O)N[C@H](C(=O)N[C@@H](C)C(=O)N1CCC[C@H]1C(=O)N[C@@H](CCC(N)=O)C(=O)O)C(C)C` [substrate peptide] (H-TAENAEYLRVAPQ-OH), the Km in assay [2] is more than 4 mM.
